According to patent US20090111968A1 (DUQUESNE UNIVERSITY OF THE HOLY GHOST, published 2009):
Where no end group is shown, it is not given here.

B1: 6x histidine tagged Zn(II)GB1-Ymbs38 fusion protein (other, streptococcal;E. hirae, UniProt P06654 228-282, looked up)
chain: TYKLILNGKTLKGETTTEAVDAATAEKVFKQYANDNGVDGEWTYDDATKTFTVTEATLTQEDIQQIMKQLNKKEPVETIECNCIPGQCECKKQ
modifications: Zn(II) bound by the four cysteines of the Cys-x-Cys-xxxx-Cys-x-Cys site
notes: Calculated monomer mass 12.8 kDa (tagged); also called 6hGB1-Ymbs38; native Zn(II)GB1-Ymbs38; not shown: N-terminal 6xHis tag and thrombin site (Leu-Val-Pro-Arg-Gly-Ser) from the pET-14b vector
B2: 6x histidine tagged apo (cysteine modified) GB1-Ymbs38 (other, streptococcal;E. hirae, UniProt P06654 228-282, looked up)
chain: B1 chain
modifications: Zn(II) removed (EDTA or acidification); the four cysteines of the metal binding motif carboxyamidomethylated with iodoacetamide
notes: Calculated mass of the carboxyamidomethylated protein 12,992 Da; also called apo-GB1-Ymbs38; Apo-GB1-Ymbs38; not shown: N-terminal 6xHis tag and thrombin site (Leu-Val-Pro-Arg-Gly-Ser) from the pET-14b vector
B3: 6x histidine tagged GB1 (lacking the Ymbs38 extension) (other, streptococcal, UniProt P06654 228-282, looked up)
chain: TYKLILNGKTLKGETTTEAVDAATAEKVFKQYANDNGVDGEWTYDDATKTFTVTE
modifications: also: 6x histidine tag, place not given here
notes: Calculated mass with tag 8387 Da (8.4 kDa); Control without the CopY part; also called 6xhis tagged GB1; not shown: 6x histidine tag

Key:
[1] = target: the molecule itself; assay: large zone size exclusion chromatography (Shodex KW 803), one trial dated 6/9/06; non-linear least squares fit of the fraction of monomer to a monomer-dimer model; cell H5 'Equilibrium constant'; sum of squares 0.025076973; no unit in the cell, loaded concentrations are in M and the text gives Ka in M^-1
Method: A 5 mL aliquot of Zn(II)CopY was loaded onto a Shodex KW 803 column (total column volume is 15 mL) equilibrated in 50 mM Tris, pH 7.8, 150 mM NaCl, 0.05% β-mercaptoethanol. […] The measure of the apparent molecular weight of the protein at each concentration was calculated by correlating the elution volume of the leading edge with elution volumes of known molecular weight standards.
The plot of the change in apparent molecular weight versus the concentration of protein loaded onto the chromatography column provided an understanding of the process that occurred during the large zone chromatography experiment. The acquired data could be further manipulated in order to calculate the equilibrium dissociation constant for the GB1-Ymbs38 dimer. […] The data points are the recorded experimental values of σw, at each loading concentration, and the solid line illustrates the best fit of the data to a monomer-dimer stoichiometric model. […] To verify that the data was fit to the appropriate stoichiometric model, a residual plot, which plots the difference between the observed fₘ and the calculated fₘ versus log [loaded protein], was prepared. […] The Kd value was calculated from the best fit of the data to a monomer-dimer stoichiometric model, represented on the plot as a solid line.

[2] = target: the molecule itself; assay: large zone size exclusion chromatography, fit to monomer-dimer model, 4 °C
Method: The data points are the recorded experimental values of σw, at each loading concentration, and the solid line illustrates the best fit of the data to a monomer-dimer stoichiometric model. Non-linear least squares analysis was used to obtain the best fit according to the procedure. To verify that the data was fit to the appropriate stoichiometric model, a residual plot, which plots the difference between the observed fₘ and the calculated fₘ versus log [loaded protein], was prepared. The elution volume of each sample was converted to the weight average partition coefficient, which was plotted as a function of GB1-Ymbs38 concentration loaded onto the chromatography column. The Kd value was calculated from the best fit of the data to a monomer-dimer stoichiometric model, represented on the plot as a solid line. The plot shown corresponds to one of the three large zone chromatography trials performed on the apo-GB1-Ymbs38 protein variant.
The fitting of the data yielded the equilibrium association constants for each protein variant, which were subsequently converted to dissociation constants, Kd. Residual points were obtained by subtracting the fraction of monomer calculated by the best fit from the actual experimental value. Residuals were ploted against the log (loaded protein). […] Equilibrium association constants were used to calculate the Gibbs energy of assembly (ΔG°) through the equation: ΔG°=−RTlnKₐ₋Equilibrium association and dissociation constants, and the Gibbs free energy changes are shown in Table 6 for each GB1-Ymbs38 variant. A decrease in affinity between GB1-Ymbs38 monomers occurred upon mutation of the leucine and isoleucine residues or upon the removal of Zn(II), with the Zn(II) removal resulting in a larger decrease. The combination of Zn(II) removal and mutation of the aliphatic amino acids eliminated the ability of GB1-Ymbs38 monomer to self-associate.

[3] = target: the molecule itself; assay: large zone size exclusion chromatography, one of three trials; best fit of the weight average partition coefficient against log [loaded protein] to a monomer-dimer model; self-association
Method: The measure of the apparent molecular weight of the protein at each concentration was calculated by correlating the elution volume of the leading edge with elution volumes of known molecular weight standards.
The plot of the change in apparent molecular weight versus the concentration of protein loaded onto the chromatography column provided an understanding of the process that occurred during the large zone chromatography experiment. The acquired data could be further manipulated in order to calculate the equilibrium dissociation constant for the GB1-Ymbs38 dimer. The elution volume, Vₑ, was converted to the weight average partition coefficient, σw, which represented the fraction of solvent volume within the gel matrix that was accessible to the protein. […] The data points are the recorded experimental values of σw, at each loading concentration, and the solid line illustrates the best fit of the data to a monomer-dimer stoichiometric model. Non-linear least squares analysis was used to obtain the best fit according to the procedure. To verify that the data was fit to the appropriate stoichiometric model, a residual plot, which plots the difference between the observed fₘ and the calculated fₘ versus log [loaded protein], was prepared. […] The Kd value was calculated from the best fit of the data to a monomer-dimer stoichiometric model, represented on the plot as a solid line. […]

[4] = target: T1, untagged Zn(II)GB1-Ymbs38 (6x histidine tag removed by thrombin) (streptococcal; E. hirae, UniProt P06654 228-282; Q47839 108-145, Zn(II) bound by the four cysteines of the Cys-x-Cys-xxxx-Cys-x-Cys site); assay: HIS-Select nickel affinity resin binding assay, SDS-PAGE
T1 construct: also called untagged GB1-Ymbs38; untagged wild-type Zn(II)GB1-Ymbs38; not shown: vector residues left after thrombin cleavage at Leu-Val-Pro-Arg-Gly-Ser
From the text: Sigma® HlS-Select™ Nickel Affinity resin was used to assess dimerization between histidine-tagged and untagged proteins. Tagged and untagged versions of CopY were isolated as described above. The untagged version of GB1-Ymbs38 was isolated from the purified tagged protein by treatment with the Sigma® THROMBIN CleanCleave™ Kit. A thrombin cleavage site between the histidine tag and the start of the GB1-Ymbs38 protein allowed for easy removal of the tag. Dimerization reactions of tagged and untagged protein were performed in 50 mM Tris, pH 7.8, 300 mM NaCl. Approximately equilmolar amounts of each protein were mixed and incubated at 37° C. for 45 minutes to promote subunit interchange. The protein mixture was applied to 100 μL of drained HIS-Select resin that had been equilibrated in 50 mM Tris, pH 7.8, 300 mM NaCl in a Centricep spin column (Princeton Separations, Inc.) at room temperature. After 1 minute of constant agitation, the resin-protein mixture was centrifuged at 500×g for 30 seconds and the flow through was collected in a clean microfuge tube. The resin then was washed twice with 350 μL of 50 mM Tris, pH 7.8, 300 mM NaCl, and once with 50 mM Tris, pH 7.8, 300 mM NaCl, 20 mM imidazole. Each wash step was followed by centrifugation at 500×g for 30 seconds to remove excess liquid. […] Eluants were analyzed on 15% Tris-tricine SDS-PAGE stained with Coomassie brilliant blue R-250.

[5] = target: the molecule itself; assay: ESI-MS, declustering voltage 10 V
Method: A Waters Micromass ZMD quadrupole mass spectrometer was used for all experiments. The mass spectrometer was calibrated with cesium iodide. The temperature at the ion spray interface was kept at 40° C. A voltage of 2.0 kV at the tip of the inlet capillary needle was used to generate the electrospray. The cone voltage was set at 20 V and the extractor voltage was set at 10 V, resulting in a declustering voltage (ΔCS) of 10 V. Samples of protein were prepared in 10 mM ammonium acetate, pH 8.0, at concentrations of approximately 250 μM and were delivered at a flow rate of 50 μL/min into the ion source.
A 6× histidine tagged version of GB1 alone (lacking the Ymbs38 extension) was subjected to ESI-MS under the same conditions. […] Charged ions due to monomeric GB1 are shown labeled with the bolded numbers. The molecular mass derived from the +6 and +7 charge states is 8258 Da. (Calculated molecular mass of GB1 with the 6× histidine tag=8387 Da.).

Binder	Ka [1]	Ka [2]	Kd [2]	Kd [3]	binding result [4]	binding result [5]
B1	40200 M⁻¹	37000 M⁻¹	28 µM			
B2		10000 M⁻¹	51 µM	54 µM		
B3					no binding	no binding (tested: approximately 250 µM)
